Test results reported in patent US20030186419.

Biological target: rMBL-rMASP-2 complexes, P11226
Sequence (P11226 21-248, chain 1 of 2): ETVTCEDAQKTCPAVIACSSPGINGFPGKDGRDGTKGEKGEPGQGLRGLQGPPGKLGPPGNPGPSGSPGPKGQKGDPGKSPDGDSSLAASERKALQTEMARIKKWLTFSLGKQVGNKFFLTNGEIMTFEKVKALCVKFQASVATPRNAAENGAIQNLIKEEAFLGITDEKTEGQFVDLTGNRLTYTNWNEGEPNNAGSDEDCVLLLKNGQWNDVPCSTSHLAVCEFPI
Sequence (chain, as listed by the source, chain 2 of 2): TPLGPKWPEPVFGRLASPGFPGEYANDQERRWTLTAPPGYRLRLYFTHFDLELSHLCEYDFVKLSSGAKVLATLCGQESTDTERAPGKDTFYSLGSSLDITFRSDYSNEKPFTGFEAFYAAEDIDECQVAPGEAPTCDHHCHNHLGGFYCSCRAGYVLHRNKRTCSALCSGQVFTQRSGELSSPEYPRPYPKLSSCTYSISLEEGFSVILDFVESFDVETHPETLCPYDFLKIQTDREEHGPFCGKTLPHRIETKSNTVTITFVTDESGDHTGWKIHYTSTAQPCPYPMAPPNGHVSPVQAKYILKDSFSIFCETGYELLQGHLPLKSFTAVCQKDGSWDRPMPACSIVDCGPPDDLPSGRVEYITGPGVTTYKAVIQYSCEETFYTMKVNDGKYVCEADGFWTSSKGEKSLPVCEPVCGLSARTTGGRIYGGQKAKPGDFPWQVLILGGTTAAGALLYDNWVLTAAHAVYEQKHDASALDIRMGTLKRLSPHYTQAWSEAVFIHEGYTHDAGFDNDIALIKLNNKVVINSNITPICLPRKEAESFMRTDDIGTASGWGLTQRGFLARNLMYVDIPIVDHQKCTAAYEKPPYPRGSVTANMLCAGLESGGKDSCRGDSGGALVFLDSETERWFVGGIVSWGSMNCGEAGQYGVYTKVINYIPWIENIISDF

GSGALLSASWILTAAHVLRSQRRDTTVIPVSKEHVTVYL [rMASP-3 (recombinant MASP-3 from HEK 293EBNA cells transfected with the pMASP-3; 4.1 construct)]
activation of C4 by rMBL-rMASP-2 complexes (bound C4 on mannan-coated wells, Eu-labelled anti-C4 antibody): The activity of rMBL-rMASP-2 complexes was also inhibited by rMASP-3
